Laboratory results reported in doi:10.1101/2021.10.12.464104 (bioRxiv, 2021).

Molecular target: mCer-α1 (human Na+/K+-ATPase α1 subunit fused to the C-terminus of mCerulean) (human, UniProt P05023 1-1023)
Test: FRET or BRET

B1: PLM-YFP (human phospholemman fused to the N-terminus of YFP) (natural protein)
chain: ESPKEHDPFTYDYQSLQIGGLVIAGILFILGILIVLSRRCRCKFNQQQRTGEPDEEEGTFRSSIRRLSTRRR
For B1, the “stoichiometry N” value was greater than 1.
